Here are results for three molecules from patent US12286461B2, “Recombinant fused polypeptide and use thereof” (priority 2019, dated 2025).

For assay [1], the system named is SD rats with CCl4-induced hepatic fibrosis. The experiment in a line: CCl4-induced hepatic fibrosis animal model. In kind it is in vivo. The following applies: 40% CCl4 i.p. twice a week for 8 weeks, fused polypeptides 6 mg/kg s.c. once every five days. On the procedure:
Modeling was performed on the rats. Each group other than the blank group was injected with 40% CCl4 intraperitoneally twice a week, the first injection was performed at 3 mL/kg, and then injection was performed at 2 mL/kg. Modeling was performed for 8 weeks to induce hepatic fibrosis. After the intraperitoneal injection of CCl4 for the fourth time, the drugs were administered according to Table 3. After induction for 8 weeks, the administration was stopped. The SD rats were dissected the next day, and blood was taken. The liver tissue was stored in a refrigerator at −80° C. for further use. The expression of HYP in the hepatic tissue of rats was detected. [table]

Assay [2] concerns SD rats with bleomycin-induced pulmonary fibrosis. The experiment in a line: Bleomycin-induced pulmonary fibrosis animal model. Format: in vivo. The conditions noted are these: for Survival rate (%): bleomycin 5 mg/kg intratracheal, dosage 10 mg/kg (Table 2), administration cycle 15 days from day 7 after modeling; for content of TGF-β1 in serum, difference from the model group: fused polypeptides 10 mg/kg s.c. once every five days, nintedanib 25 mg/kg intragastric once a day. The procedure: SD rats were anesthetized by intraperitoneal injection of 4% chloral hydrate with a concentration of 1 mL/100 g. After anesthesia, the rats were fixed and their necks were disinfected by using cotton with 75% alcohol. The skin of the rat neck was longitudinally cut with scissors, and the fascia and muscle were longitudinally bluntly torn with tweezers to expose the trachea. A syringe was inserted into the trachea to inject 5 mg/kg bleomycin, while a blank group was injected with an equal amount of normal saline. Then a rat plate was quickly erected and rotated, the rats' breathing was observed, the neck wound was sterilized after rotation and was sewn, and an amoxicillin anti-inflammatory drug was sprinkled on the suture. After the operation, the rats were put back into a dry and clean cage for resting, waiting for awakening. The rats were awakened after about 1-2 hours, and then fed normally. On the 7th day after modeling, modeling group animals randomly fell into a model group, a Nintedanib positive drug group, recombinant fused polypeptide 1, 2, 3 and 4 dosage groups, and a normal control group, and the groups were administered separately for an administration cycle of 15 days. Living situations of rats were observed every day and their weights were weighed. After administration for 15 days, the eyeballs were removed and blood was taken, the rats were dissected, and lungs were taken. The content of TGF-β1 in serum and the content of HYP in lung tissues were detected.

Another assay has as its system protozoa. Put plainly: Mouse pneumonia model, protozoal pneumonia. The conditions noted are these: BALB/C mouse pneumonia model, nasal drip; average ± standard deviation. In kind it is in vivo. The source says:
(§1) A mouse pneumonia model was successfully established by using a nasal drip method. BALB/C mice with a body weight of 18-24 g were selected, and then anesthetized with ether on day 0, day 1 and day 2, respectively, prepared Streptococcus pneumoniae bacteria solution, adenovirus concentrated solution, Mycoplasma pneumoniae, Chlamydia pneumoniae, protozoa and pneumonia fungi were slowly dropped into the nasal cavity of the mice, so that the bacteria solutions entered the trachea and bronchi, and the bacteria solutions were prevented from flowing into the esophagus during the operation to avoid inactivation of the bacteria solutions, so that the mouse pneumonia model was established. After the model was successfully established, the recombinant fused polypeptides according to the present invention were administered.

The subject of another assay is pulmonary infections. Put plainly: Mouse pneumonia model, pneumonia caused by pulmonary infections. The conditions noted are these: BALB/C mouse pneumonia model, nasal drip, average ± standard deviation. Format: in vivo, BALB/C mice.
Description: as §1

For another assay, the system named is pneumonia fungi. The experiment in a line: Mouse pneumonia model, fungal pneumonia. In kind it is in vivo. The following applies: BALB/C mouse pneumonia model, nasal drip; average ± standard deviation.
Description: as §1

The subject of a further assay is adenovirus. The experiment in a line: Mouse pneumonia model, viral pneumonia. In kind it is in vivo. The conditions noted are these: BALB/C mouse pneumonia model, nasal drip; average ± standard deviation.
Description: as §1

In the next assay the test system is Mycoplasma pneumoniae. Put plainly: Mouse pneumonia model, mycoplasma pneumonia. The conditions noted are these: BALB/C mouse pneumonia model, nasal drip; average ± standard deviation. Format: in vivo.
Description: as §1

The subject of another assay is Chlamydia pneumoniae. Put plainly: Mouse pneumonia model, chlamydia pneumonia. Format: in vivo. The conditions noted are these: BALB/C mouse pneumonia model, nasal drip; average ± standard deviation.
Description: as §1

A further assay deals with Streptococcus pneumoniae. Put plainly: Mouse pneumonia model, bacterial pneumonia. The following applies: BALB/C mouse pneumonia model, nasal drip; average ± standard deviation. In kind it is in vivo.
Description: as §1

Assay [3] relates to SD rats with renal fibrosis. Put plainly: Renal fibrosis animal model (ureter ligation). In kind it is in vivo. The conditions noted are these: 6 mg/kg s.c. once every five days, after 15 days. The procedure:
A renal fibrosis animal model was established. SD rats were anesthetized with 4% chloral hydrate, injected with 1 mL/100 g intraperitoneally, fixed to an operation board, and sterilized in an operation area for further use. […] Muscular layers and abdominal walls were sewed layer by layer, the suture was disinfected with alcohol. After SD rats woke up, the rats were put into a cage for feeding. In the blank group, ureter was not ligated, and other steps were the same.
Then, the animals fell into a blank group, a model group, and recombinant fused polypeptide administration groups, and the administration was started on the second day after the operation, and was performed for 15 days. After administration for 15 days, blood was taken and supernatant was taken to detect the content of TGF-β1 in serum.

For assay [4], the system named is mice with bleomycin-induced skin fibrosis. The experiment in a line: Bleomycin-induced skin fibrosis model. In kind it is in vivo, C57/BL black mice. The conditions noted are these: C57/BL mice, bleomycin 10 μg/mL s.c. daily for 28 days, 10 mg/kg s.c. once every five days, 6 times, FIG. 6. On the procedure:
Bleomycin (10 μg/mL) was injected subcutaneously every day for 28 days to form skin fibrosis. During the modeling period, the administration groups were given drugs for treatment. After modeling, the mice were killed on the next day, and the skin tissue of the mouse back was taken to detect the content of HYP in the skin tissue. [table]

Assay [5] deals with mice with myocardial fibrosis. Put plainly: Isoprenaline-induced myocardial fibrosis animal model. Format: in vivo. The following applies: BALB/c mice, isoprenaline 5 mg/kg s.c. daily for 7 days, 12 mg/kg s.c. (Table 5), after the 8th day, FIG. 5. The procedure: In the model group, the experimental mice were injected with isoprenaline (ISO) (5 mg/kg) subcutaneously on the back of the mice every day for 7 consecutive days, and the mice were injected with normal saline subcutaneously (200 μL/mouse) every day. In the blank group, normal saline was injected subcutaneously (200 μL/mouse) every day. […] After the 8th day, blood was taken and was centrifuged, the supernatant was taken, and the content of TGF-β1 in serum was detected.

Where [6] appears, read: listed as recombinant fused polypeptide I.

In the case of `COC(=O)c1ccc2c(c1)NC(=O)/C2=C(\Nc1ccc(N(C)C(=O)CN2CCN(C)CC2)cc1)c1ccccc1` [Nintedanib, nintedanib, reference compound], in assay [1] (FIG. 3), the “content of HYP in liver tissue, difference from the model group” value is on record as “highly significantly different from the model group (***P<0.001)”. In addition, the “Survival rate (%)” value in assay [2] was found to be 85.7%. For the same molecule, in assay [2] (bleomycin pulmonary fibrosis, after 15 days, FIG. 2), the “content of TGF-β1 in serum, difference from the model group” value is “highly significantly different from the model group (**P<0.01)”.
Regarding Penicillin [reference compound], the “Inhibitory effect, Protozoal pneumonia” value in the assay with protozoa was 45.62 ± 5.43. In addition, the “Inhibitory effect, Pneumonia caused by pulmonary infections” value with pulmonary infections turned out to be 45.78 ± 3.65. Further, the “Inhibitory effect, Fungal pneumonia” value in the assay on pneumonia fungi is given as 38.89 ± 2.24. Moreover, the “Inhibitory effect, Viral pneumonia” value in the assay with adenovirus was 50.07 ± 5.12. Also, the “Inhibitory effect, Mycoplasma pneumonia” value with Mycoplasma pneumoniae stood at 43.21 ± 4.56. Further, the “Inhibitory effect, Chlamydia pneumonia” value with Chlamydia pneumoniae came to 39.13 ± 5.23. For the same molecule, the “Inhibitory effect, Bacterial pneumonia” value in the assay with Streptococcus pneumoniae was 39.21 ± 5.35.

B1: PRCWRGEGGGGIVRRADRAAVPGGGGRGDGGGGSGGGGSGGGGSSDKPGGGGTSLDASIIWAMMQNGGGGLSKL (protein)
chain: PRCWRGEGGGGIVRRADRAAVPGGGGRGDGGGGSGGGGSGGGGSSDKPGGGGTSLDASIIWAMMQNGGGGLSKL
notes: Recombinant fused polypeptide X-linker1-Y expressed in 293 cells
For B1, the “Inhibitory effect, Protozoal pneumonia” value with protozoa stood at 54.26 ± 5.32. In addition, the “content of HYP in liver tissue, difference from the model group” value is given as “highly significantly different from the model group (***P<0.001)” in [1] (FIG. 3, listed as Recombinant fused polypeptide 1) and “can lower the HYP content” in [1] (FIG. 3, listed as recombinant fused polypeptide I). Also, the “Inhibitory effect, Pneumonia caused by pulmonary infections” value is given as 52.47 ± 4.28 in the assay on pulmonary infections and “inhibitory effect” in the assay with pulmonary infections (setting [6]). In addition, the “content of TGF-β1 in serum, difference from the model group” value in assay [3] (FIG. 4, listed as recombinant fused polypeptide 1, 6 mg/kg) was “highly significantly different from the model group (***P<0.001)”; in assay [3] (FIG. 4, listed as recombinant fused polypeptide I, 6 mg/kg), “can lower the TGF-β1 content”; in [5] (listed as recombinant fused polypeptide 1), “significantly different from the model group (**P<0.01)”; in [5] (setting [6]), “can lower the TGF-β1 content”; in assay [2] (bleomycin pulmonary fibrosis, after 15 days, FIG. 2, listed as fused polypeptide 1), “highly significantly different from the model group (**P<0.01)”; in [2] (bleomycin pulmonary fibrosis, after 15 days, FIG. 2, listed as recombinant fused polypeptide I), “can lower the TGF-β1 content”. Besides, the “Inhibitory effect, Fungal pneumonia” value with pneumonia fungi amounted to 49.68 ± 5.74. For the same molecule, the “Inhibitory effect, Viral pneumonia” value in the assay on adenovirus is 54.68 ± 5.23. In addition, the “Inhibitory effect, Mycoplasma pneumonia” value in the assay with Mycoplasma pneumoniae was found to be 38.47 ± 4.35. Further, the “Inhibitory effect, Chlamydia pneumonia” value in the assay on Chlamydia pneumoniae is 39.26 ± 4.66. Also, the “content of HYP in skin tissue, difference from the model group” value in assay [4] (listed as recombinant fused polypeptide 1, 10 mg/kg) is given as “highly significantly different from the model group (**P<0.01)”; in assay [4] (listed as recombinant fused polypeptide I, 10 mg/kg) it was “can lower the hydroxyproline content”. The “Inhibitory effect, Bacterial pneumonia” value in the assay with Streptococcus pneumoniae was 38.43 ± 8.25. The “Survival rate (%)” value in [2] is listed as 85.7%; in assay [2] (listed as fused polypeptide 1), “equivalent to that of the positive drug group”. The “hydroxyproline (HYP) content in lung tissue” value in [2] (bleomycin pulmonary fibrosis, 10 mg/kg s.c. once every five days, after 15 days, FIG. 1) is “can lower the hydroxyproline content”.
